Where a chain is given by its changes, count along the chain named. Numbers in names are those of the source.
T1: PUF4 RNA-binding domain (Saccharomyces cerevisiae, UniProt P25339 537-888)
T1 sequence: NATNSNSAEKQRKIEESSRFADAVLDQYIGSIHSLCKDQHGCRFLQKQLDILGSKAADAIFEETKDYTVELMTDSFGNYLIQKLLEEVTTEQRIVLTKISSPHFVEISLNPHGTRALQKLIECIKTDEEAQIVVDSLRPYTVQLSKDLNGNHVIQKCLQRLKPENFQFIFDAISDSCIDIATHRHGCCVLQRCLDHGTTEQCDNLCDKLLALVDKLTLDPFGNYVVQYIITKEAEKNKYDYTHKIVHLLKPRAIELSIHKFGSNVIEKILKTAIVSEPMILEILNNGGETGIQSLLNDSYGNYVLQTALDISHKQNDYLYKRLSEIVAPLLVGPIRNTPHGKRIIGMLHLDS

B1: Ie_S2_P4E.1_K4.1_C4.1_H4.1_A4.1_F4.1_[+9C]_T4.1 (ssRNA)
RNA: UUUGAUUAAUAUGAUAUCGUUCUUUCUUGUAUAUUACUUCUUUCUCGAUAUCAUAUUAAUCUUU
B2: Ie_S2_P4E.1_K4.1_C4.1_H4.1_A4.1_F4.1_[+9T]_T4.1 (ssRNA)
RNA: B1 RNA with C37U
B3: Ie_S2_P5E.1_K5.1_C5.1_H5.1_[+1CCC]_A5.1_F5.1_T5.1 (ssRNA)
RNA: UUUGAUUAAUAUGAUAUCGUUCUUUCUUCCCGUAUUAUUAUUCUUUCUCGAUAUCAUAUUAAUCUUU
B4: Ie_S2_P5E.1_K5.1_C5.1_H5.1_[+1TCC]_A5.1_F5.1_T5.1 (ssRNA)
RNA: B3 RNA with C29U
B5: Ie_S2_P5E.1_K5.1_C5.1_H5.1_[+1TTT]_A5.1_F5.1_T5.1 (ssRNA)
RNA: B3 RNA with C29U, C30U, C31U
B6: Ie_S2_P5E.1_K5.1_C5.1_H5.1_[+1TTC]_A5.1_F5.1_T5.1 (ssRNA)
RNA: B3 RNA with C29U, C30U
B7: Ie_S2_P5E.1_K5.1_C5.1_H5.1_[+1CTT]_A5.1_F5.1_T5.1 (ssRNA)
RNA: B3 RNA with C30U, C31U
B8: Ie_S2_P5E.1_K5.1_C5.1_H5.1_[+1CTC]_A5.1_F5.1_T5.1 (ssRNA)
RNA: B3 RNA with C30U
B9: Ie_S2_P5E.1_K5.1_C5.1_H5.1_[+2CTC]_A5.1_F5.1_T5.1 (ssRNA)
RNA: B3 RNA with C29G, C31U, G32C
B10: Ie_S2_P5E.1_K5.1_C5.1_H5.1_[+1TCT]_A5.1_F5.1_T5.1 (ssRNA)
RNA: B3 RNA with C29U, C31U
B11: Ie_S2_P5E.1_K5.1_C5.1_H5.1_[+1CTCT]_A5.1_F5.1_T5.1 (ssRNA)
RNA: UUUGAUUAAUAUGAUAUCGUUCUUUCUUCUCUGUAUUAUUAUUCUUUCUCGAUAUCAUAUUAAUCUUU
B12: Ie_S2_P5E.1_K5.1_C5.1_H5.1_[+1TCTC]_A5.1_F5.1_T5.1 (ssRNA)
RNA: B11 RNA with C29U, U30C, C31U, U32C
B13: Ie_S2_P5E.1_K5.1_C5.1_H5.1_[+1CCCT]_A5.1_F5.1_T5.1 (ssRNA)
RNA: B11 RNA with U30C
B14: Ie_S2_P4E.1_K4.1_C4.1_H4.1_A4.1_F4.1_[+9CTCTC]_T4.1 (ssRNA)
RNA: UUUGAUUAAUAUGAUAUCGUUCUUUCUUGUAUAUUACUCUCUUCUUUCUCGAUAUCAUAUUAAUCUUU
B15: Ie_S2_P4E.1_K4.1_C4.1_H4.1_A4.1_F4.1_[+9CCTCT]_T4.1 (ssRNA)
RNA: B14 RNA with U38C, C39U, U40C, C41U
B16: Ie_S2_P4E.1_K4.1_C4.1_H4.1_A4.1_F4.1_[+9TCTCT]_T4.1 (ssRNA)
RNA: B14 RNA with C37U, U38C, C39U, U40C, C41U
B17: Ie_S2_P4E.1_K4.1_C4.1_H4.1_A4.1_F4.1_[+9CCCTT]_T4.1 (ssRNA)
RNA: B14 RNA with U38C, C41U
B18: Ie_S2_P4E.1_K4.1_C4.1_H4.1_A4.1_F4.1_[+9TTCCT]_T4.1 (ssRNA)
RNA: B14 RNA with C37U, U40C, C41U
B19: Ie_S2_P4E.1_K4.1_C4.1_H4.1_A4.1_F4.1_[+9CC]_T4.1 (ssRNA)
RNA: UUUGAUUAAUAUGAUAUCGUUCUUUCUUGUAUAUUACCUUCUUUCUCGAUAUCAUAUUAAUCUUU
B20: Ie_S2_P4E.1_K4.1_C4.1_H4.1_A4.1_F4.1_[+9TC]_T4.1 (ssRNA)
RNA: B19 RNA with C37U
B21: Ie_S2_P5E.1_K5.1_C5.1_H5.1_[+2T]_A5.1_F5.1_T5.1 (ssRNA)
RNA: B19 RNA with A31U, U32A, A33U, U35A, A36U, C37U, C38A
B22: Ie_S2_P5E.1_K5.1_C5.1_H5.1_[+1CTCTC]_A5.1_F5.1_T5.1 (ssRNA)
RNA: UUUGAUUAAUAUGAUAUCGUUCUUUCUUCUCUCGUAUUAUUAUUCUUUCUCGAUAUCAUAUUAAUCUUU
B23: Ie_S2_P5E.1_K5.1_C5.1_H5.1_[+1CCCTT]_A5.1_F5.1_T5.1 (ssRNA)
RNA: B22 RNA with U30C, C33U
B24: Ie_S2_P5E.1_K5.1_C5.1_H5.1_[+1CCTCT]_A5.1_F5.1_T5.1 (ssRNA)
RNA: B22 RNA with U30C, C31U, U32C, C33U
B25: Ie_S2_P4E.1_K4.1_C4.1_H4.1_A4.1_F4.1_[+9TCTC]_T4.1 (ssRNA)
RNA: UUUGAUUAAUAUGAUAUCGUUCUUUCUUGUAUAUUAUCUCUUCUUUCUCGAUAUCAUAUUAAUCUUU
B26: Ie_S2_P5E.1_K5.1_C5.1_H5.1_[+2TCT]_A5.1_F5.1_T5.1 (ssRNA)
RNA: B3 RNA with C29G, C30U, G32U
B27: Ie_S2_P5E.1_K5.1_C5.1_H5.1_[+3TTT]_A5.1_F5.1_T5.1 (ssRNA)
RNA: B3 RNA with C29G, C30U, C31U, G32U
B28: Ie_S2_P5E.1_K5.1_C5.1_H5.1_[+2CTT]_A5.1_F5.1_T5.1 (ssRNA)
RNA: B3 RNA with C29G, C31U, G32U
B29: Ie_S2_P5E.1_K5.1_C5.1_H5.1_[+2TTC]_A5.1_F5.1_T5.1 (ssRNA)
RNA: B3 RNA with C29G, C30U, C31U, G32C
B30: Ie_S2_P5E.1_K5.1_C5.1_H5.1_[+2TCC]_A5.1_F5.1_T5.1 (ssRNA)
RNA: B3 RNA with C29G, C30U, G32C
B31: Ib_S2_P3E.1_K3.1_C3.1_H3.1_[T1G]_[G2T]_A3.1_F3.1_T3.1 (ssRNA)
RNA: UUUGAUUAAUAUGAUAUCGUUCUUUCUGUUAUAUAUUCUUUCUCGAUAUCAUAUUAAUCUUU
B32: Ib_S2_P3E.1_K3.1_C3.1_H3.1_[T1A]_[G2A]_A3.1_F3.1_T3.1 (ssRNA)
RNA: B31 RNA with G28A, U29A
B33: Ib_S2_P3E.1_K3.1_C3.1_H3.1_[T1C]_[G2C]_A3.1_F3.1_T3.1 (ssRNA)
RNA: B31 RNA with G28C, U29C
B34: Ib_S2_P3E.1_K3.1_C3.1_H3.1_[T1C]_[T3C]_A3.1_F3.1_T3.1 (ssRNA)
RNA: B31 RNA with G28C, U29G, U30C
B35: Ie_S2_P4E.1_K4.1_C4.1_H4.1_A4.1_F4.1_[+9CCC]_T4.1 (ssRNA)
RNA: UUUGAUUAAUAUGAUAUCGUUCUUUCUUGUAUAUUACCCUUCUUUCUCGAUAUCAUAUUAAUCUUU
B36: Ie_S2_P5E.1_K5.1_C5.1_H5.1_[+1CC]_A5.1_F5.1_T5.1 (ssRNA)
RNA: B35 RNA with G29C, U30C, A31G, C37U, C38U, C39A
B37: Ie_S2_P4E.1_K4.1_C4.1_H4.1_A4.1_F4.1_[+9TTT]_T4.1 (ssRNA)
RNA: B35 RNA with C37U, C38U, C39U
B38: Ie_S2_P5E.1_K5.1_C5.1_H5.1_[+2CC]_A5.1_F5.1_T5.1 (ssRNA)
RNA: B35 RNA with U30C, A31C, C37U, C38U, C39A
B39: Ie_S2_P4E.1_K4.1_C4.1_H4.1_A4.1_F4.1_[+9TTC]_T4.1 (ssRNA)
RNA: B35 RNA with C37U, C38U
B40: Ie_S2_P5E.1_K5.1_C5.1_H5.1_[+2CT]_A5.1_F5.1_T5.1 (ssRNA)
RNA: B35 RNA with U30C, A31U, C37U, C38U, C39A
B41: Ie_S2_P5E.1_K5.1_C5.1_H5.1_[+2TT]_A5.1_F5.1_T5.1 (ssRNA)
RNA: B35 RNA with A31U, C37U, C38U, C39A

biological target: T1, PUF4 RNA-binding domain; experiment: Mg; RNA-MaP; 20 mM Na-HEPES pH 7.4, 30 mM KOAc, 0.75 mM MgCl2, 0.1% Tween-20, 5% glycerol, 0.1 mg/mL BSA, 2 mM DTT; 25 C; 0.0125-409.6 nM protein; settings: tags: N-His6-TEV cleaved; C-SNAP kept, Cy3B-labelled; label: tethered on chip by stalled RNA polymerase

| Binder | Kd [nM] |
| --- | --- |
| B1 | 1.33 |
| B2 | 0.265 |
| B3 | 178 |
| B4 | 198 |
| B5 | 1.6 |
| B6 | 374 |
| B7 | 1.16 |
| B8 | 355 |
| B9 | 499 |
| B10 | 1.14 |
| B11 | 1.25 |
| B12 | 245 |
| B13 | 1.15 |
| B14 | 0.532 |
| B15 | 0.733 |
| B16 | 0.382 |
| B17 | 0.523 |
| B18 | 0.282 |
| B19 | 0.543 |
| B20 | 0.411 |
| B21 | 26 |

| Binder | Kd [nM] |
| --- | --- |
| B22 | 204 |
| B23 | 1.2 |
| B24 | 1.23 |
| B25 | 0.324 |
| B26 | 11.1 |
| B27 | 11.3 |
| B28 | 368 |
| B29 | 6.91 |
| B30 | 22.2 |
| B31 | 15.6 |
| B32 | 889 |
| B33 | 495 |
| B34 | > 2300 |
| B35 | 0.512 |
| B36 | 565 |
| B37 | 0.208 |
| B38 | 679 |
| B39 | 0.446 |
| B40 | 725 |
| B41 | 6.21 |

Reference: publication PMC9352680, “A comprehensive thermodynamic model for RNA binding by the Saccharomyces cerevisiae Pumilio protein PUF4”
